For two substances, delay of attachment of labeled MAM7 protein to trypsin-treated host cells and Kd results are on record in patent US20140093477A1.

Assay [1] concerns the target fibronectin on host cells (UniProt P02751). The assay is described as follows: cell-based or functional assay.
Assay [2] has as its target fibronectin from human plasma (full-length soluble fibronectin) (human) (UniProt P02751). The assay is described as follows: fluorescence saturation binding, fluorophore-labeled MBP-MAM on immobilized fibronectin (coated plates).

“MBP-MAM7 (6xHis-MBP-Cys-MAM7, seven mce domains), Alexa Fluor 488-labeled (from UniProt P0AEX9 27-392)” displayed a delay of attachment of labeled MAM7 protein to trypsin-treated host cells in assay [1] of 1 h.

In general, Kd refers to the constant that tells how readily two partners part at equilibrium. With “MBP-MAM6 (6xHis-MBP-Cys-six mce domains), Alexa Fluor 488-labeled”, in assay [2], the Kd turned out to be 36 µM.
